The assay deals with UbcH8 (UniProt O14933 1-153). As to the kind of experiment: NMR titration.

The record followed here is paper doi:10.1101/2025.06.14.659664 (bioRxiv, 2025).

Positions count from the first letter of the chain named. Names and notes keep the numbering of the source.

Sequence of UbcH8 (O14933 whole entry): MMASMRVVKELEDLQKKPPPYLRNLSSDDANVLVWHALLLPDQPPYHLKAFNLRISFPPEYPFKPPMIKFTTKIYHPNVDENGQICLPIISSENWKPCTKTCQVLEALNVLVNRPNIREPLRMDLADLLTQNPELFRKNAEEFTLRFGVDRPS

B1: GBI-Uba7-UFD fusion protein (human Uba7 ubiquitin-fold domain, residues 903-1011), wild type (domain or fragment, UniProt P41226 903-1011, looked up)
chain: IQTFHHLKWTSWDRLKVPAGQPERTLESLLAHLQEQHGLRVRILLHGSALLYAAGWSPEKQAQHLPLRVTELVQQLTGQAPAPGQRVLVLELSCEGDDEDTAFPPLHYE
As to B1, the binding result is recorded as “binds”.

B2: GBI-Uba7-UFD A1004C mutant (domain or fragment, human, UniProt P41226 903-1011, looked up)
chain: B1 chain with A102C
As to B2, the binding result is on record as “binds”.
